Assay results published in US20240270857A1 (CHIA TAI TIANQING PHARMACEUTICAL GROUP, published 2024).
Like-named read-outs stand apart in the source and are kept apart here.

Key:
[1] = molecular target: T1, human IL-36R overexpressed on 293T-hIL36R-NFκB cells (human, UniProt Q9HB29 20-575); test: FACS on 293T-hIL36R-NFκB cells, ratio of MFI to background MFI
T1 construct: Entry includes the signal peptide; also called IL1RL2; IL-1Rrp2
T1 sequence: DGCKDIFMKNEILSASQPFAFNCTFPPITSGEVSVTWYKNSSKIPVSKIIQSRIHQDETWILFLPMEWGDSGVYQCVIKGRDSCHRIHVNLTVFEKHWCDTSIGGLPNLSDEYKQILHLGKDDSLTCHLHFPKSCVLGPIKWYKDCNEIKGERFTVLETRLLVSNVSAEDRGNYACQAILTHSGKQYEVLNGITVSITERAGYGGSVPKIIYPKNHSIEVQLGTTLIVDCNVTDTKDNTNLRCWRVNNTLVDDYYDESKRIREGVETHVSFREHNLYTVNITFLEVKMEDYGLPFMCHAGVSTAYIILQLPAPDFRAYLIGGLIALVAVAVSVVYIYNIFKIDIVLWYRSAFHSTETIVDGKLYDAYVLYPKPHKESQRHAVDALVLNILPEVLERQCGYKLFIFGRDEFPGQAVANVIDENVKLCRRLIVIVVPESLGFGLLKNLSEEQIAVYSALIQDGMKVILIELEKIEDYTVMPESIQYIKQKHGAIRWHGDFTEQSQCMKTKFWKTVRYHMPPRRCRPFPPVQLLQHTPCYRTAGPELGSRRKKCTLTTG
Procedure: (§1) After the cells was washed with PBS, the cells were resuspended with 100 μL of PBS and then the fluorescence signal was detected using a flow cytometer (BD, Accuri C6). […] The ratio was the ratio of mean fluorescence intensity (MFI) of the experimental group/the background MFI, and the resulting data were analyzed using GraphPad Prism.
(§2) Affinity, binding and blocking assays for humanized antibodies hz72C1-1.1, hz72C1-1.2, hz72C1-1.3, hz72C1-2.1, hz72C1-2.2 and hz72C1-2.3 as well as hz84C4-1.1, hz84C4-1.2, hz84C4-1.3, hz84C4-1.4, hz84C4-1.5, hz84C4-2.1, hz84C4-2.2, hz84C4-2.3, hz84C4-2.4 and hz84C4-2.5 were performed according to the methods of Example 4, Example 5. Example 6, Example 7 and Example 8.

[2] = molecular target: T2, CynoIL36R-ECD mFc recombinant protein (cynomolgus monkey); test: ELISA, plate coated with CynoIL36R-ECD mFc, HRP-protein A/G, OD450
T2 construct: Made in ExpiCHO, purified on Protein A; also called cynomolgus IL-36R extracellular region with mouse antibody heavy chain Fc
T2 chain: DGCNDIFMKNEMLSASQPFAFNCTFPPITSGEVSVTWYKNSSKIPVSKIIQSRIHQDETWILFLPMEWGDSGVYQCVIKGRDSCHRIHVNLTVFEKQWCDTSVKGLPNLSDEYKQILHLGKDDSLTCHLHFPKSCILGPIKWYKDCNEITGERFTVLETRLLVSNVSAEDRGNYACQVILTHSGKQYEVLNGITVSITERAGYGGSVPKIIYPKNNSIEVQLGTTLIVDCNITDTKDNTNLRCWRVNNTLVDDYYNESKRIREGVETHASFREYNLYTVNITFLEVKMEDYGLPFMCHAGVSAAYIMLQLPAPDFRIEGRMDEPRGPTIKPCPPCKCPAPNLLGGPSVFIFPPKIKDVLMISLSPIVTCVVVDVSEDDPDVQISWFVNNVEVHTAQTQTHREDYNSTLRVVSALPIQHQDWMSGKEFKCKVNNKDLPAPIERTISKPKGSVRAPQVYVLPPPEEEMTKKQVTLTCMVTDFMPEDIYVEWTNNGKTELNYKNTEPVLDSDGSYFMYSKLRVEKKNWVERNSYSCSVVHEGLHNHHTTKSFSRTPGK
Procedure: The binding activity of anti-IL-36R antibodies to IL-36R was analyzed by ELISA using human IL-1Rrp2/IL-1R6 protein, His Tag (ACROBiosystems, IL2-H52H6) and CynoIL36R-ECD mFc (for detection of chimeric and humanized antibodies), and hIL36R-ECD hFc and CynoIL36R-ECD hFc protein (for detection of hybridoma antibodies) as antigens. A 96-well plate (Costar, 9018) was coated with 2 μg/mL antigen at 100 μL/well and incubated overnight at 4° C. After the 96-well plate was washed with a washing buffer (PBS containing 0.05% v/v Tween 20), a blocking buffer (PBS containing 2% bovine serum albumin) was added for blocking at 37° C. for 2 h. After the 96-well plate was washed with the washing buffer, 100 μL of the gradient diluted anti-IL-36R antibody of the present disclosure or the reference antibody BI655130 (the initial concentration of the antibody was 66 nM, 4-fold gradient dilution) was added to each well, and the plate was incubated at room temperature for 1 h. After the 96-well plate was washed with the washing buffer, 100 μL of horseradish peroxidase-conjugated recombinant protein A/G (TheroScientific, 32490) was added to each well, and the plate was incubated at room temperature for 1 h. After the 96-well plate was washed with the washing buffer, 100 μL of a TMB solution (Thermo, 00-4201-56) was added to each well, and the plate was incubated at room temperature for 2 min. Finally, 100 μL of a stop solution (2 N H₂SO₄) was added to each well to stop the reaction. Absorbance was read at 450 nm using a microplate reader (PE, Envision), the resulting data was analyzed using GraphPad Prism, and EC₅₀ was calculated. Binding EC₅₀ of the chimeric anti-IL-36R antibodies to hIL-36R in an ELISA assay is shown in FIG. 1. and binding EC₅₀ of the chimeric anti-IL-36R antibodies to CynoIL-36R in an ELISA assay is shown in FIG. 2. The binding of BI655130 is shown as a control, and the binding of IgG4 is shown as a negative control.

[3] = molecular target: T1, human IL-36R overexpressed on …; test: cell-based or functional assay
[4] = molecular target: T1, human IL-36R overexpressed on …; test: FACS on 293T-hIL36R-NFκB cells, ratio of MFI to background MFI; remark: listed apart in the source
Procedure: as §1, §2

EC50 [1]: 9.82 nM
EC50 [2]: 1.97 nM
IC50 (M); hIL36α; NFκB-luciferase [3]: 6.09e-09 M
IC50 (M); hIL36αβγ; NFκB-luciferase [3]: 2.36e-08 M
IC50 (M); hIL36β; NFκB-luciferase [3]: 2.45e-09 M
IC50 (M); hIL36γ; NFκB-luciferase [3]: ~1.32e-08 M
Maximum inhibition rate %; hIL36α; NFκB-luciferase [3]: 84.5%
Maximum inhibition rate %; hIL36αβγ; NFκB-luciferase [3]: 81.2%
Maximum inhibition rate %; hIL36β; NFκB-luciferase [3]: 86.7%
Maximum inhibition rate %; hIL36γ; NFκB-luciferase [3]: 79.2%
EC50 [4]: 5.13 nM
B1: BI655130 (antibody, human IgG1, kappa, L234A L235A)
heavy: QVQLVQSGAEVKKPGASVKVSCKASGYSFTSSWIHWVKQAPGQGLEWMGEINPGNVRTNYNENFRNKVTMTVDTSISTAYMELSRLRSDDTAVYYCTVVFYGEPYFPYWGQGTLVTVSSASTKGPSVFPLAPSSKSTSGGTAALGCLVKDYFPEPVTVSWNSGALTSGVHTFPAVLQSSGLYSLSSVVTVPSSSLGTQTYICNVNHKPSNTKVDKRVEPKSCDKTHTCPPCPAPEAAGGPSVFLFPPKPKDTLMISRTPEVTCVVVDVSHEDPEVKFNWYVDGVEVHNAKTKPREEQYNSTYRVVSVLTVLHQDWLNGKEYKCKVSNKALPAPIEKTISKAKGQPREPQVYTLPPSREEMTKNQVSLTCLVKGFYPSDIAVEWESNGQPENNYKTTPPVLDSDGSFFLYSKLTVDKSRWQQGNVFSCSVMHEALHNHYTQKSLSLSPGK
light: QIVLTQSPGTLSLSPGERATMTCTASSSVSSSYFHWYQQKPGQAPRLWIYRTSRLASGVPDRFSGSGSGTDFTLTISRLEPEDAATYYCHQFHRSPLTFGAGTKLEIKRTVAAPSVFIFPPSDEQLKSGTASVVCLLNNFYPREAKVQWKVDNALQSGNSQESVTEQDSKDSTYSLSSTLTLSKADYEKHKVYACEVTHQGLSSPVTKSFNRGEC
notes: also called Spesolimab
